# B1: ActivinA: nodal-related TGFβ molecule (R&D systems) used to differentiate PSCs into definitive endoderm (protein, UniProt P08476 311-426, looked up)
# Inhibin beta A chain: GLECDGKVNICCKKQFFVSFKDIGWNDWIIAPSGYHANYCEGECPSHIAGTSGSSLSFHSTVINHYRMRGHSPFANLKSCCVPTKLRPMSMLYYDDGQNIIKKDIQNMIVEECGCS
# B2: Noggin: the BMP antagonist Noggin (R&D Systems) (protein, UniProt Q13253 28-232, looked up)
# Noggin: QHYLHIRPAPSDNLPLVDLIEHPDPIFDPKEKDLNETLLRSLLGGHYDPGFMATSPPEDRPGGGGGAAGGAEDLAELDQLLRQRPSGAMPSEIKGLEFSEGLAQGKKQRLSKKLRRKLQMWLWSQTFCPVLYAWNDLGSRFWPRYVKVGSCFSKRSCSVPEGMVCKPSKSVHLTVLRWRCQRRGGQRCGWIPIQYPIISECKCSC
# Experiments:
# [1] = tested on: hESCs and iPSCs; experiment: Definitive endoderm induction, SOX17/FOXA2 immunofluorescence; assay type: cell-based, human; conditions: ActivinA 100 ng/ml for 3 days
# Description: Differentiation of PSCs into Definitive Endoderm (DE). Differentiation into Definitive Endoderm was carried out as previously described. Briefly, a 3 day ActivinA (R&D systems) differentiation protocol was used. Cells were treated with ActivinA (100 ng/ml) for three consecutive days in RPMI 1640 media (Invitrogen) with increasing concentrations of 0%, 0.2%, 2% HyClone defined FBS (dFBS) (Thermo Scientific).
# Directing Hindgut Development of PSCs. As a first step to generating intestinal tissue, nodal-related TGFβ molecule activinA was used to promote differentiation of PSCs into DE as previously published. […]
# FIGS. 6a and 6b illustrate exemplary embodiments in accordance with the present invention, depicting characterization of DE formation from hESC and iPSC lines by immuno-fluorescence (IF) and Microarray analysis. […] (b) Transcriptional profile of DE induction. hESC-H9 and iPSC lines 3.5, 3.6 and 3.12 were analyzed before and after DE formation (activin differentiation) by Affymetrix DNA microarray analysis.
# Tissues were fixed for 1 hour to overnight in 4% paraformaldehyde or 3% glutaraldehyde for transmission electron microscopy (TEM). […] Slides were washed and mounted using Fluormount-G. Confocal images were captured on a Zeiss LSM510 and Z-stacks were analyzed and assembled using AxioVision software. […]
# [2] = tested on: H9-HES cells differentiated into definitive endoderm; experiment: Posteriorization of definitive endoderm: foregut (ALB, PDX1) and hindgut (CDX2) marker expression by RT-qPCR and immunofluorescence; assay type: cell-based, human
# Description: Differentiation of DE in Permissive Media (Differentiation Protocol for FIG. 1). After differentiation into definitive endoderm, cells were incubated in DMEM/F12 plus 2% defined fetal bovine serum (dFBS) with either 0, 50, or 500 ng/ml of FGF4 and/or 0, 50, or 500 ng/ml of Wnt3a (R&D Systems) for 6, 48, or 96 hours. Cultures were then grown in permissive media consisting of DMEM plus 10% fetal bovine serum (FBS) for an additional 7 days.
# FIGS. 1a through 1d illustrate exemplary embodiments of the present invention. FGF4 and Wnt3a act synergistically in a temporal and dose-dependent manner to specify stable posterior endoderm fate. ActivinA (100 ng/ml) was used to differentiate H9-HES cells into definitive endoderm (DE). DE was treated with the posteriorizing factors FGF4 (50, 500 ng), Wnt3a (50, 500 ng) or both for 6, 48 or 96 hours. Cells were then cultured in a permissive medium without growth factors for an additional seven days and analyzed for expression of foregut markers (ALB, PDX1) and the hindgut marker (CDX2) by RT-qPCR (a) and immunofluorescence (b-d). FGF4/Wnt-mediated changes in marker expression in (a) is relative to 3-day activin treated DE cultures that were grown for identical lengths of time in the absence of FGF4 or Wnt3a (control). […] Error bars denote standard deviation of triplicates. Significance is shown by; * (p<0.05), ^ (p<0.001), # (p<0.0001).
# FIGS. 7a and 7b illustrate exemplary embodiments in accordance with the present invention, depicting time and concentration dependent induction of CDX2 by FGF4 and Wnt3a. (a) FGF4 and Wnt3a up-regulate CDX2 in a concentration dependant manner. 3-day ActivinA treated hESCs were treated for 48 hours with Wnt3a at 50 ng/ml or 500 ng/ml or FGF4 at 50 ng/ml or 500 ng/ml, or increasing concentrations of FGF4+Wnt3a. Cells were analyzed after 48 hours of treatment. […] CDX2 expression was normalized to the internal control beta-tubulin, and is shown relative to a 48 hour control cultured in the absence of growth factors. (b) FGF4 and Wnt3a up-regulate CDX2 in a time dependant manner. 48 hours of exposure to FGF4+Wnt3a was required for the most robust induction of CDX2. All time points shown are set relative to a 0 hour no growth factor control. 500 ng/ml of FGF4, Wnt3a or FGF4+Wnt3a was used for all time points. Note that 24 hour and 48 controls, in the absence of growth factors, show a significant and spontaneous up-regulation of CDX2. Error bars denote standard deviation of triplicates. Significance is shown by; * (p<0.05)
# RNA was isolated using the Nucleospin II RNA isolation kit (Clonetech). […] Finally, qPCR was carried out using Quantitect SybrGreen MasterMix (Qiagen) on a Chromo4 Real-Time PCR (BioRad). […]
# [3] = tested on: intestinal organoids; experiment: Intestinal regionalization of hindgut spheroids in 3D matrigel culture with BMP or noggin; assay type: cell-based, human; conditions: added after the hindgut stage to EGF/Rspondid1 containing media; organoids analyzed after 28 days
# Description: For investigating the impact of BMP signaling on intestinal regionalization after hindgut formation, hindgut spheroids were plated in matrigel and BMP or noggin were added to EGF/Rspondid1 containing media. Intestinal organoids were analyzed after 28 days.
# [4] = tested on: definitive endoderm from human embryonic and induced pluripotent stem cells; experiment: Foregut/hindgut patterning of definitive endoderm by WNT, FGF, BMP and RA signaling (Cdx2, Sox2, HHex, Cerberus expression); assay type: cell-based
# Description: Following definitive endoderm (DE) induction with activin (100 ng/ml) for 3 days, a 2-4 day treatment was performed with the indicated combination of factors: Wnt3a (500 ng/ml) and Fgf4 (500 ng/ml), Retinoic acid (RA) in a range of 0.2-20 μM the BMP antagonist Noggin (50 ng/ml), the WNT antagonist […] (1-500 ng/ml).
# In particular, FIGS. 14B and 14D depict the activation of FGF/WNT/BMP signaling promotes posterior/hindgut fate as indicated by expression of Cdx2. […] Activation of FGF/WNT/BMP signaling represses foregut fate as indicated by expression of Sox2 (FIG. 14C).
# The effects of Retinoic Acid in promoting hindgut differentiation in a BMP dependent manner (FIGS. 15A-15D). […] Similar comparison was also performed by immunostaining (FIGS. 15C and 15D). Activation of RA signaling promotes posterior/hindgut fate as indicated by expression of Cdx2 and represses foregut fate as indicated by expression of Sox2. Immunostaining in FIG. 15C is quantified in FIG. 15D using an automated cell counting program.
molecule,measurement,setting,value
B1,cells co-expressing the DE markers SOX17 and FOXA2,[1],80-90%
same,cells co-expressing the DE markers SOX17 and FOXA2,[1]; listed as Activin,up to 90%
same,competence of DE cultures to form foregut and hindgut lineages,"[2]; activinA for only 3-days, then seven days in permissive conditions",competent to develop into both foregut (Albumin+ and Pdx1+) and hindgut (Cdx2) lineages
same,competence of DE cultures to form foregut and hindgut lineages,[2]; prolonged activin treatment for 4-5 days,intrinsically anterior in character and not as competent to form posterior lineages
B2,regional intestinal fate,[3],promotes a proximal intestinal fate (duodenum/jejunum)
same,Wnt/Fgf-induced Cdx2 expression,"[4]; Noggin 50 ng/ml with Wnt3a 500 ng/ml and Fgf4 500 ng/ml, 2-4 day treatment after DE induction",completely abolishes the Wnt/Fgf-induced Cdx2 expression
same,"Retinoic acid (RA)-induced posteriorization, Cdx2 expression",[4]; addition of Noggin to Retinoic acid treatment,potently inhibits Cdx2 expression
same,"hindgut and foregut fate (Cdx2, Sox2 expression)",[4]; repression of BMP signaling with noggin,suppresses hindgut fate and promotes foregut fate
